For assay [1], the target named is T1, 6His-Fc-FGFR4 (human, UniProt P22455 144-369).
T1 construct: not shown: 6His tag and Fc as named in '6His-Fc-FGFR'
T1 sequence: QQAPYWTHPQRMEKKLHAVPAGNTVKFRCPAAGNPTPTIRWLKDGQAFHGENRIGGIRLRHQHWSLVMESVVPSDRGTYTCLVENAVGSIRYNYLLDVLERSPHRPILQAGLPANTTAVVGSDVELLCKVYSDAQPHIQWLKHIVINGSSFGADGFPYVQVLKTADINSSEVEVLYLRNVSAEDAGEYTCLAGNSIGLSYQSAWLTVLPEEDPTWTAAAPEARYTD
In words: competition ELISA, blocks 6His-Fc-FGFR4 binding to coated FGF2. As for the experimental part: (§1) ELISA plates were coated with 50 ug/ml Heparin Sulfate (HSPG) (Sigma Aldrich) and incubated overnight at room temperature. Plates were then washed extensively with PBS containing 0.05% v/v Tween20 (PBST). Plates were then blocked with 2.5% BSA in PBST for one hour and washed extensively as before. 40-60 μL of FGF1 or FGF2 was then added to each well at 40 μg/ml and allowed to bind at room temperature for 2 hours. Plates were then washed extensively with PBST as before. Stock solutions of each 6His-Fc-FGFR (FGFR1-4) were prepared at 500 ng/ml in 2% v/v BSA-PBST and each antibody was prepared as a 2×-dilution series in 2% v/v BSA-PBST. Antibodies dilution series and 6His-Fc-FGFR1-4 were diluted in a 1:1 fashion and immediately added to the relative wells of the plate and allowed to bind for 2 hours at room temperature. Plates were washed extensively as before with PBST and the remaining fraction of bound 6His-Fc-FGFR was detected using a polyclonal-anti-His-6-HRP conjugated antibody (Abcam) for one hour at room temperature. After extensive washing with PBST, 50 μl of Pierce Chemiluminescent substrate (Thermo Fisher Scientific, Rockford, USA) was added and plates were measured on an Envision plate reader (Perkin Elmer). Raw data was background corrected and plotted using Prism software. […]
In general terms: An ELISA detects its analyte on a solid surface through an enzyme-linked reagent.

In assay [2] the target is FGFR1 on tumour cells (UniProt P11362 22-822). In words: cell-based or functional assay.
The target of assay [3] is T2, 6His-Fc-FGFR1c (human, UniProt P11362 141-376).
T2 construct: not shown: 6His tag and Fc as named in '6His-Fc-FGFR'
T2 sequence: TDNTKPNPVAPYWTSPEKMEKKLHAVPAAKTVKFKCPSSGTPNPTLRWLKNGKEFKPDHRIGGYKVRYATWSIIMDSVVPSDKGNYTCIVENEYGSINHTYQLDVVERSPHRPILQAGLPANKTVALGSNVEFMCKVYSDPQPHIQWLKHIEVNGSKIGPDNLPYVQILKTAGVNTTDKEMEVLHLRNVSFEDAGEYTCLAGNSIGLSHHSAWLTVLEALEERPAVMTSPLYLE
In words: competition ELISA, blocks 6His-Fc-FGFR1c binding to coated FGF2. As for the experimental part:
as §1

For assay [4], the target named is T3, soluble FGFR4 receptor protein (human, UniProt P22455 144-369).
T3 sequence: T1 sequence
The assay can be described thus: BLI Octet RED96, antibody on anti-hIgG Fc tip. How it is done:
(§2) Briefly, the Pall ForteBio Octet RED96 Bio-Layer Interferometry system was used to determine the specificity of anti-FGFR antibodies for FGFR1c, FGFR2c, FGFR3c, and FGFR4. The antibodies and soluble receptor proteins were prepared in PBS at a concentration of 300 nM. First, the candidate antibodies were immobilized on the surface of anti-human IgG Fc biosensor tips for 120 seconds. After immobilization, the biosensors were dipped in PBS solution for 60 seconds (baseline step) to assess assay drift, and determine loading level of antibodies. The baseline step was followed by an association step of 300 seconds wherein the binding interaction between the immobilized antibodies and soluble receptors was measured. Following the association step, the biosensors were dipped into PBS buffer for 600 seconds to measure the dissociation of the bound receptor proteins from the immobilized antibodies. Each binding response was measured and reported real time on a sensorgram trace. For data analysis, a simple 1:1 binding model was used which measures the rate of complex formation of one immobilized antibody and one soluble receptor protein.
For orientation: In BLI a coated tip is dipped into the sample, and binding shifts an interference pattern.

The target of assay [5] is T4, soluble FGFR3c receptor protein (human, UniProt P22607 141-372).
T4 sequence: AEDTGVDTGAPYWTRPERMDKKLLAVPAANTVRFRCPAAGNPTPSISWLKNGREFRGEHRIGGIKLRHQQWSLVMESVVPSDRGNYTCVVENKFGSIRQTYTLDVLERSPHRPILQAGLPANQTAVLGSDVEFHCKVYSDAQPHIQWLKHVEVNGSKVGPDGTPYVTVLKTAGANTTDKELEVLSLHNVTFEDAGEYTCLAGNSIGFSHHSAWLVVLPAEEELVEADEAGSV
In words: BLI Octet RED96, antibody on anti-hIgG Fc tip. As for the experimental part:
as §2

In assay [6] the target is T5, soluble FGFR1c receptor protein (human, UniProt P11362 141-376).
T5 sequence: T2 sequence
In words: BLI Octet RED96, antibody on anti-hIgG Fc tip. As for the experimental part: as §2

The target of assay [7] is soluble FGFR2c receptor protein (human, UniProt P21802 148-377). The assay can be described thus: BLI Octet RED96, antibody on anti-hIgG Fc tip. How it is done: as §2
Assay [8] addresses T6, recombinant human FGFR4 Fc fusion (human, UniProt P22455 144-369).
T6 construct: 19 used; also called FGFR4c; not shown: Fc part of the FGFR-Fc fusion
T6 sequence: T1 sequence
The assay can be described thus: solid phase ELISA on coated FGFR-Fc. How it is done:
(§3) For the ELISA assay, the ability of each mAb to cross react with the […] FGF receptors was tested across a concentration curve in order to determine the relative binding across FGFR1-4. FGFR2IIIb was used as a negative control. Black 384-well Maxisorp plates were coated overnight with FGFR-Fc fusions in PBS to 1 ug/ml before washing and blocking with 75 ul/well Pierce Protein Free (PBS) Blocking Buffer for 1 hour at RT. Antibody dilutions were prepared freshly in 1% BSA- PBS+0.05% Tween20 and 25 ul of each antibody was added to wells in duplicate. Plates were incubated at RT for 2 hours, followed by addition of detection antibody at 50 ng/ml in 1% BSA PBS, 0.05% Tween20. ECL substrate (Pierce) was added and plates were read on the EnVision plate reader.

Assay [9] addresses T7, recombinant human FGFR1c Fc fusion (human, UniProt P11362 141-376).
T7 construct: also called FGFR1IIIc; not shown: Fc part of the FGFR-Fc fusion
T7 sequence: T2 sequence
The assay can be described thus: solid phase ELISA on coated FGFR-Fc. As for the experimental part:
as §3

Assay [10] has as its target T8, recombinant human FGFR2c Fc fusion (human, UniProt P21802 148-377).
T8 construct: also called FGFR2IIIc; not shown: Fc part of the FGFR-Fc fusion
The assay can be described thus: solid phase ELISA on coated FGFR-Fc. How it is done:
as §3

For assay [11], the target named is T9, recombinant human FGFR3c Fc fusion (human, UniProt P22607 141-372).
T9 construct: also called FGFR3IIIc; not shown: Fc part of the FGFR-Fc fusion
T9 sequence: T4 sequence
In words: solid phase ELISA on coated FGFR-Fc. How it is done:
as §3

Numbering of substitutions follows the chain as printed. Values joined by “and” are separate entries in the source; they are usually repeats but may differ in a detail not shown here. Equal values may be shown once.

The values that follow come from patent publication US20180244785A1 (MERRIMACK PHARMACEUTICALS, published 2018).

Sequence of soluble FGFR2c receptor protein (P21802 148-377): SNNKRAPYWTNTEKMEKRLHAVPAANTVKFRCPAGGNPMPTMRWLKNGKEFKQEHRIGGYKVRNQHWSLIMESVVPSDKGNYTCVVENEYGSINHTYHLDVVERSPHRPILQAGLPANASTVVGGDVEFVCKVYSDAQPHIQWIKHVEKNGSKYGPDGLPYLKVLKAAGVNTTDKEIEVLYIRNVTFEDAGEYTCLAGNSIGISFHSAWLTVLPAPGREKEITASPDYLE
Sequence of FGFR1 on tumour cells (P11362 22-822): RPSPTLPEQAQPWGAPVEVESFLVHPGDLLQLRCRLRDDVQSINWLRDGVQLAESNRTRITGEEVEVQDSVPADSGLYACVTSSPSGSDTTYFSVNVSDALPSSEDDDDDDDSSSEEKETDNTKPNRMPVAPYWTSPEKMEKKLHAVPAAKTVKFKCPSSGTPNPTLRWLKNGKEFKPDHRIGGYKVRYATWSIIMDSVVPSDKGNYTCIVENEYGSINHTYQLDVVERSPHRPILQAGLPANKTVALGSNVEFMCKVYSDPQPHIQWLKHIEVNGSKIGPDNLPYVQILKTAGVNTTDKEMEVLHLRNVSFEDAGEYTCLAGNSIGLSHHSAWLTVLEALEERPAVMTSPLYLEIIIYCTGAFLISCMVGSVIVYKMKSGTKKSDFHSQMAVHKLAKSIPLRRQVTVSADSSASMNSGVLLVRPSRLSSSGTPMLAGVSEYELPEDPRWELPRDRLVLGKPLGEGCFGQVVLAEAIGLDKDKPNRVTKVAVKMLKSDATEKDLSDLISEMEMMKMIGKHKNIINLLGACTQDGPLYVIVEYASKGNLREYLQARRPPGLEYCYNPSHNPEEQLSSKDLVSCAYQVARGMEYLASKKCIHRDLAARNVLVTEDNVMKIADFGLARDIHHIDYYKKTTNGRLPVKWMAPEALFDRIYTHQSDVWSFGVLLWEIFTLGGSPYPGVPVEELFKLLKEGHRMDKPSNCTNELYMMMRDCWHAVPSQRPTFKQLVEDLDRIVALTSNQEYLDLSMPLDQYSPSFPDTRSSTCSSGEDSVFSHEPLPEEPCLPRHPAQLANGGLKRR
T8 sequence (P21802 148-377): as the sequence (P21802 148-377) above

B1: Ab15 (antibody, human IgG2, kappa, V domains shown)
VH: EVQLLESGGGVVQPGRSLRLSCAASGFTFSSYAMHWVRQAPGKGLEWVAVISYDGSNKYYADSVKGRFTISRDNSKNTLSLQMNSLRVEDTAIYYCVRGAGRGYTYGPDGFDIWGQGTMVTVSS
VL: DIVMTQTPLSLSVTPGQPASISCTSSRSLLHSDGKTYVYWYVQKSGQPPQLLIYELSNRFSGVPDRFSGSGSRTDFTLKISRVEAEDVGVYYCMQYIEAPLTFGGGTKVEIKR
notes: Format in each assay not spelled out; also called FGF#26
For orientation: IC50 means the concentration that inhibits the measured activity by half. As a reminder, the Kd is the equilibrium constant for the complex coming apart. The low end stands for tighter binding, the high end for weaker binding. A word on the koff: it is the first-order rate constant of dissociation. A higher koff goes with a short-lived complex. A word on the kon: it is a measure of how fast the partners come together. A higher kon goes with faster complex formation. As a reminder, the EC50 is the concentration needed to bring the measured effect to its halfway point. On to B1, for which the values for the IC50 in assay [1] and in assay [3] were 25.7 nM and 3.35 nM, respectively. Also, in [2], the “IC50 of pERK inhibition (AlphaScreen SureFire) in NCI-H1581 cells” value (“IC50 of pERK inhibition” for short) worked out at 4.12 nM. Moreover, the dissociation constant Kd in assay [4] is 11.2 nM and 7.35 nM and 7.88 nM; in assay [5], 8.42 nM and 8.59 nM and 8.21 nM; in [6], 13.7 nM and 4.72 nM and 7.39 nM; in [7], 10.3 nM and 11.8 nM and 11.5 nM. The off-rate (koff) was 0.00124 s⁻¹ and 0.00091 s⁻¹ and 0.00101 s⁻¹ in assay [4]; 0.00108 s⁻¹ and 0.00105 s⁻¹ and 0.00102 s⁻¹ in assay [5]; 0.00193 s⁻¹ and 0.00234 s⁻¹ and 0.00235 s⁻¹ in [7]. The on-rate constant (kon) in assay [4] is 98200 M⁻¹ s⁻¹ and 124000 M⁻¹ s⁻¹ and 128000 M⁻¹ s⁻¹; in [5], 121000 M⁻¹ s⁻¹ and 123000 M⁻¹ s⁻¹ and 124000 M⁻¹ s⁻¹; in assay [6], 76500 M⁻¹ s⁻¹ and 48900 M⁻¹ s⁻¹ and 44600 M⁻¹ s⁻¹; in [7] it was 183000 M⁻¹ s⁻¹ and 199000 M⁻¹ s⁻¹ and 205000 M⁻¹ s⁻¹. Moreover, the EC50 in [8] is 7.56 nM; in [9], 0.0112 nM; in [10], 0.0147 nM; in assay [11], 0.129 nM.

B2: Ab65 (antibody, human IgG2, kappa, V domains shown)
VH: B1 VH with T105P
VL: B1 VL
notes: format in the assays not spelled out
As for B2, the concentration for half-maximal inhibition (IC50) in [1] was determined as 13.4 nM; in assay [3], 3.18 nM.

B3: Ab23 (antibody, human IgG2, V domains shown)
VH: B1 VH with Y104L
VL: DIVMTQTPLSLSVTPGQPASISCKSSRSLLHSDGKTYVYWYVQKSGQPPQLLIYELSNRFSGVPDRFSGSGSRTDFTLKISRVEAEDVGVYYCMQYIEAPLTFGGGTKVEIK
notes: Format in the assays not spelled out
On to B3, for which the IC50 in assay [1] was 23.8 nM; in assay [3] it was 4.52 nM. Moreover, the “IC50 of pERK inhibition” value in assay [2] was found to be 3.04 nM.

B4: Ab27 (antibody, human IgG2, kappa, V domains shown)
VH: B1 VH with Y106L
VL: B1 VL with T24K
notes: as for B2
Take B4: the half-inhibitory concentration (IC50) in [1] was determined as 30.1 nM; in assay [3] it was 5.45 nM. In addition, in assay [2], the “IC50 of pERK inhibition” value was 1.77 nM.

B5: Ab25 (antibody, human IgG2, kappa, V domains shown)
VH: B1 VH with R102L, Y104F
VL: B1 VL with T24K
notes: as for B2
On to B5, for which the 50% inhibitory concentration (IC50) was 11.6 nM in assay [1] and 4.95 nM in assay [3]. In [2], the “IC50 of pERK inhibition” value is 1.64 nM.

B6: Ab32 (antibody, human IgG2, kappa, V domains shown)
VH: B1 VH with R102L, Y104F
VL: B1 VL with I97V
notes: as for B2
In the case of B6, the results for the IC50 in [1] and in [3] were 11.5 nM and 4.29 nM, respectively. For the same molecule, in assay [2], the “IC50 of pERK inhibition” value is 2.55 nM.

B7: Ab34 (antibody, human IgG2, kappa, V domains shown)
VH: B1 VH with Y106R
VL: B1 VL with I97V
notes: as for B2
Take B7: the IC50 in assay [1] was determined as 14.3 nM; in [3], 5.23 nM. For the same molecule, in assay [2], the “IC50 of pERK inhibition” value came to 4.83 nM.

B8: Ab16 (antibody, human IgG2, kappa, V domains shown)
VH: B1 VH with Y106R
VL: B1 VL with T24K
notes: as for B2
Turning to B8, the IC50 in assay [1] amounted to 40.1 nM; in assay [3], 6.28 nM. Also, in assay [2], the “IC50 of pERK inhibition” value was found to be 3.88 nM.

B9: Ab89 (antibody, human IgG2, kappa, V domains shown)
VH: B1 VH with Y104F, T105P
VL: B1 VL with T24R, A99V
notes: as for B2
B9: the IC50 in [1] is 27.4 nM; in assay [3], 11.1 nM.

B10: Ab88 (antibody, human IgG2, kappa, V domains shown)
VH: B1 VH with Y104L
VL: B1 VL with T24K, V38L
notes: as for B2
In the case of B10, the IC50 stood at 19 nM in assay [1] and 8.02 nM in [3].

B11: Ab21 (antibody, human IgG2, kappa, V domains shown)
VH: B1 VH with R102L, Y104W, T105P
VL: B1 VL with T24K
notes: as for B2
In the case of B11, the IC50 in assay [1] amounted to 9.96 nM; in assay [3], 5.54 nM. In addition, the “IC50 of pERK inhibition” value in assay [2] amounted to 1.31 nM.

B12: Ab31 (antibody, human IgG2, kappa, V domains shown)
VH: B1 VH with Y104L
VL: B1 VL with I97V
notes: as for B2
Consider B12, for which the 50% inhibitory concentration (IC50) in assay [1] is 22.2 nM; in [3] it was 5.21 nM. Moreover, the “IC50 of pERK inhibition” value in assay [2] was found to be 2.72 nM.

B13: Ab29 (antibody, human IgG2, kappa, V domains shown)
VH: B1 VH with R102L, Y104W, T105P
VL: B1 VL with I97V
notes: as for B2
In the case of B13, the IC50 in assay [1] was 5.41 nM; in assay [3] it was 4.19 nM. For the same molecule, the “IC50 of pERK inhibition” value in assay [2] amounted to 0.54 nM.
